T1: APG30127-L32-nAPG07433.1 (synthetic)
T1 chain: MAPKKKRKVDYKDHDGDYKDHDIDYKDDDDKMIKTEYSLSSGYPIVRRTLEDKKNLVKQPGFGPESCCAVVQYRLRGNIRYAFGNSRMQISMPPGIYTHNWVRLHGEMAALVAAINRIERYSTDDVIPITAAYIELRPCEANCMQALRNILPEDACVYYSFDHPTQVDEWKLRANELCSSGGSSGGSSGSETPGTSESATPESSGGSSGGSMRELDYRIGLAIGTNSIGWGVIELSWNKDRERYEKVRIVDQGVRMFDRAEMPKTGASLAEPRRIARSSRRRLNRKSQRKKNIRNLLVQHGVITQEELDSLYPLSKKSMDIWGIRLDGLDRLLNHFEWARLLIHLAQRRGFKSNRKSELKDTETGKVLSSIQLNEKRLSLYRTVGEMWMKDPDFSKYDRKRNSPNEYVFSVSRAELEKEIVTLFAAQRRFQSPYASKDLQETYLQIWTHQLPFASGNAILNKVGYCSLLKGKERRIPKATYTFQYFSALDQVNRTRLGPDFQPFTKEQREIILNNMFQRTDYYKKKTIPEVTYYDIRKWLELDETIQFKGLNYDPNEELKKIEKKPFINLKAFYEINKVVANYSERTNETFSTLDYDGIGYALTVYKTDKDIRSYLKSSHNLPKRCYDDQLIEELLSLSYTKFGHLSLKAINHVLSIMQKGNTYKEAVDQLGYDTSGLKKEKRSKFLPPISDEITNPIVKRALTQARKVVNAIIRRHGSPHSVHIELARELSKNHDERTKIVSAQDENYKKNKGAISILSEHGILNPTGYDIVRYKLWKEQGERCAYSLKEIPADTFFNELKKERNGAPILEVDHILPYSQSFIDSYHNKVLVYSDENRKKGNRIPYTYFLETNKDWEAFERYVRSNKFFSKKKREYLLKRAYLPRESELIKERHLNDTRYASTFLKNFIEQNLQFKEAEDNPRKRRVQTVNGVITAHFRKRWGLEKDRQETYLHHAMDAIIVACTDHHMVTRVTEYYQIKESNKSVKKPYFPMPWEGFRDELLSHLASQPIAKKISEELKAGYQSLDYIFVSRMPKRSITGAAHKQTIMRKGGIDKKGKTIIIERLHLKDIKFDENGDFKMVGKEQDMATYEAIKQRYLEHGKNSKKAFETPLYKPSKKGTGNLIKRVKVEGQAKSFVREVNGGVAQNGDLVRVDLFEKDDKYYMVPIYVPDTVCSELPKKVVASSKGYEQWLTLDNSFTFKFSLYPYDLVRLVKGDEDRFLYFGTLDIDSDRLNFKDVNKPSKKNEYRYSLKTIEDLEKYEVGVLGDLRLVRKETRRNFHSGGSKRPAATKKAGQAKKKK

T2: APG30129-L32-nAPG07433.1 (synthetic)
T2 chain: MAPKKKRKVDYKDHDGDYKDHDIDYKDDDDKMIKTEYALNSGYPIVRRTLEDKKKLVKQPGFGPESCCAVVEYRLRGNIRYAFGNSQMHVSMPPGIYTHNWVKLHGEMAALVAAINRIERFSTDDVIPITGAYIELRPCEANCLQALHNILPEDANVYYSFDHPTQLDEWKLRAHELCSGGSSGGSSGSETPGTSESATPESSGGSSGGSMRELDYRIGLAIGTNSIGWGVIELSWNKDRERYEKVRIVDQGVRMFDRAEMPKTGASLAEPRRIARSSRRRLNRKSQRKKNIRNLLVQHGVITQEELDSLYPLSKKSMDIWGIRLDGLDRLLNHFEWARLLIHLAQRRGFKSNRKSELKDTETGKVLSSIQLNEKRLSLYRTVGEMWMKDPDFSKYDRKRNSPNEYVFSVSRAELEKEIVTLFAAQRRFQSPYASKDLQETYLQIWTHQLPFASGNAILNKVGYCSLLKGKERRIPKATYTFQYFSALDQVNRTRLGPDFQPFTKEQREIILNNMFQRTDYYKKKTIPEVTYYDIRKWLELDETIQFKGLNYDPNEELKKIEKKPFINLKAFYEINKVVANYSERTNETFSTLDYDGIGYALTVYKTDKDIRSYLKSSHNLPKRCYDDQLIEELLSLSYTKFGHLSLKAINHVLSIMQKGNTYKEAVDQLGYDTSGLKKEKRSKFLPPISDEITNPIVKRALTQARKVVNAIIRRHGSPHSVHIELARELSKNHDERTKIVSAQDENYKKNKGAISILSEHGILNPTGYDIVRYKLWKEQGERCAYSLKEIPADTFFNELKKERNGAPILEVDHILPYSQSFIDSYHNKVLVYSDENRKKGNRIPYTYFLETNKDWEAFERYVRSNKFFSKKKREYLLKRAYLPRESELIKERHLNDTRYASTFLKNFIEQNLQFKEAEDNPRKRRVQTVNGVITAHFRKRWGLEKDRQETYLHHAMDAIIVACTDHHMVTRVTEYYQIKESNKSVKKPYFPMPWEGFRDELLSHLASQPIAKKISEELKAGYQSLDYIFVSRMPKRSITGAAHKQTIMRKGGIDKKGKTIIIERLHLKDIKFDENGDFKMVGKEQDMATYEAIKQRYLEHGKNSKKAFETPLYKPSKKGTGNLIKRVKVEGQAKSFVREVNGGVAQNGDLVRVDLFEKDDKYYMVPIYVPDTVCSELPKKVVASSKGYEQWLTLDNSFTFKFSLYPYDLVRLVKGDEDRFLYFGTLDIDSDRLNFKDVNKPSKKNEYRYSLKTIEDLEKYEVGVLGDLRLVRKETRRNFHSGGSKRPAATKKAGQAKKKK

B1: SGN000186 sgRNA ; SGN000186 target (ssRNA ; dsDNA)
RNA: GGACAGUGCGCAUCUCCCUGGUCAUAGUUCCAUUAAAGCCAAAAGUGGCUUUGAUGUUUCUAUGAUAAGGGUUUCGACCCGUGGCGUCGGGGAUCGCCUGCCCAUUGAAAUGGGCUUCUCCCCAUUUAUU
DNA 1: GGACAGTGCGCATCTCCCTG
DNA 2: CAGGGAGATGCGCACTGTCC
B2: SGN000928 sgRNA ; SGN000928 target (ssRNA ; dsDNA)
RNA: GCUUCUACUCUUGGCUUACAACCCAGUCAUAGUUCCAUGAAAGCCAAAAGUGGCUUUGAUGUUUCUAUGAUAAGGGUUUCGGCCCGUGGCGUCGGGGAUCGCCUGCCCAUUCCGAUGGGCUUCUCCCCAUUUAUU
DNA 1: GCTTCTACTCTTGGCTTACAACCCA
DNA 2: TGGGTTGTAAGCCAAGAGTAGAAGC

Columns and labels:
Conditions in all cases: tags: SV40 NLS, 3xFLAG N-term; nucleoplasmin NLS C-term
[1] = biological target: T1, APG30127-L32-nAPG07433.1; assay: cell_activity; HEK293FT; PAM SEQ 152
Method: (§1) 500 ng of plasmid comprising an expression cassette comprising a coding sequence for each fusion protein shown in Table 3 and 500 ng of plasmid comprising an expression cassette encoding an sgRNA shown in Table 4 were co-transfected into HEK293FT cells at 75-90% confluency in 24-well plates using Lipofectamine 2000 reagent (Life Technologies). Cells were then incubated at […] for 72 h. Following incubation, genomic DNA was then extracted using NucleoSpin 96 Tissue (Macherey-Nagel) following the manufacturer's protocol. The genomic region flanking the targeted genomic site was PCR amplified using the primers in Table 4 and products were purified using ZR-96 DNA Clean and Concentrator (Zymo Research) following the manufacturer's protocol. The purified PCR products were then sent for Next Generation Sequencing on Illumina MiSeq (2×250). Results were analyzed for INDEL formation or introduction of % specific cytosine mutations.
(§2) The position of each nucleotide in the target sequence was determined. “C17” indicates, for example, a cytosine at position 17 of the target sequence. The position of each nucleotide in the target sequence was determined by numbering the first nucleotide in the target sequence closest to the PAM as position 1, and the position number increases in the 3′ direction away from the PAM sequence.

[2] = biological target: T2, APG30129-L32-nAPG07433.1; assay: cell_activity; HEK293FT; PAM SEQ 152
Method: as §1, §2

[3] = biological target: nAPG07433.1-APG05840 (synthetic); assay: cell_activity; HEK293FT; C>G predominant; PAM SEQ 152

Binder	activity [1] [% mutated reads]	activity [2] [% mutated reads]	activity [3] [% mutated reads]
B1	14.3	11.4	
B2			20.9

Reference: patent publication US20240301385, “DNA MODIFYING ENZYMES AND ACTIVE FRAGMENTS AND VARIANTS THEREOF AND METHODS OF USE” (LIFEEDIT THERAPEUTICS, INC., published 2024)
